According to the supplement of paper PMC7877785:
± gives the uncertainty stated by the source.

Test: self-splicing fitness, log relative to wild type (ln ratio); higher = more splicing; Tetrahymena group I intron in knt gene, E. coli kanamycin selection, DiMSum; sequences stand for … in CUCUCU…GGAGGGAAAAGUUAUCAGGCAUGCACCUGGUAGCUAGUCUUUAAACCAAUAGAUUGCAUCGGUUUAAAAGGCAAGACCGUCAAAUUGCGGGAAAGGGGUCAACAGCCGUUCAGUACCAAGUCUCAGGGGAAACUUUGAGAUGGCCUUGCAAAGGGUAUGGUAAUAAGCUGACGGACAUGGUCCUAACCACGCAGCCAAGUCCUAAGUCAACAGAUCUUCUGUUGAUAUGGAUGCAGUUCACAGACUAAAUGUCGGUCGGGGAAGAUGUAUUCUUCUCAUAAGAUAUAGUCGGACCUCUCCUUAAUGGGAGCUAGCGGAUGAAGUGAUGCAACACUGGAGCCGCUGGGAACUAAUUUGUAUGCGAAAGUAUAUUGAUUAGUUUUGGAGUACUCGUGGUCG
In short: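 The eight P1ex-region nucleotides of an intron in the knt kanamycin-resistance gene on pET-22b(+) were all randomised and the library put into E. coli BL21(DE3). Six replicate transformations were grown overnight at 37°C or 30°C on LB agar with or without 25 μg/mL kanamycin, together with 100 μg/mL carbenicillin, 50 μM IPTG and 0.2% rhamnose. Colonies were pooled and amplicon-sequenced on an Illumina HiSeq 2500. Fitness from DiMSum is the error-weighted combination of wild-type-normalised replicate fold changes, kanamycin over none.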

Row | Sequence | self-splicing fitness (ln) (30 °C) | self-splicing fitness (ln) (37 °C)
1 | GAUCAGCAAUAUUACGGCGU | -0.292 ± 0.086 | 0.2 ± 0.1
2 | ACAAAGCAAUAUUACGACCG | -0.343 ± 0.1 | 0.578 ± 0.13
3 | UCCAAGCAAUAUUACGCUGC | -2.94 ± 0.21 | -2.61 ± 0.27
4 | CGCCAGCAAUAUUACGCGAU | -3.87 ± 0.2 | -2.22 ± 0.17
5 | GCGAAGCAAUAUUACGUAGA | -3.57 ± 0.44 | -1.75 ± 0.37
6 | GUAAAGCAAUAUUACGACGA | 0.208 ± 0.073 | 1.1 ± 0.1
7 | GACUAGCAAUAUUACGCCCG | -1.77 ± 0.24 | -0.58 ± 0.28
8 | GGCCAGCAAUAUUACGCAGA | -1.66 ± 0.082 | -1.28 ± 0.08
9 | CGCAAGCAAUAUUACGCGUU | -3.9 ± 0.15 | -2.86 ± 0.15
10 | ACCAAGCAAUAUUACGUCCU | -0.777 ± 0.058 | 0.0592 ± 0.075
11 | CAGUAGCAAUAUUACGAGUG | -0.988 ± 0.052 | -0.603 ± 0.076
12 | CCUAAGCAAUAUUACGGUGG | -2.76 ± 0.11 | -2.03 ± 0.14
13 | GUACAGCAAUAUUACGGCGG | -2.78 ± 0.19 | -2.66 ± 0.22
14 | UUAAAGCAAUAUUACGCGUC | -1.08 ± 0.11 | -1.66 ± 0.16
15 | AUAUAGCAAUAUUACGGCAG | -1.74 ± 0.16 | -1.79 ± 0.19
16 | ACUCAGCAAUAUUACGCUCC | -0.601 ± 0.12 | -0.848 ± 0.16
17 | GGACAGCAAUAUUACGUAAG | -0.165 ± 0.061 | 0.19 ± 0.079
18 | CGCAAGCAAUAUUACGUUUC | -2.92 ± 0.16 | -2.21 ± 0.23
19 | UAAAAGCAAUAUUACGCUCC | -2.04 ± 0.46 | -0.325 ± 0.48
20 | AUUCAGCAAUAUUACGGGCG | -0.695 ± 0.1 | -0.0814 ± 0.12
21 | UGAGAGCAAUAUUACGGACA | -1.66 ± 0.18 | -0.674 ± 0.2
22 | GUUCAGCAAUAUUACGUAAU | 0.434 ± 0.088 | 0.484 ± 0.098
23 | UGUCAGCAAUAUUACGUUCC | -1.82 ± 0.19 | -0.73 ± 0.25
24 | AACAAGCAAUAUUACGGAGA | -3.58 ± 0.23 | -3.19 ± 0.24

Row | Sequence | self-splicing fitness (ln) (30 °C) | self-splicing fitness (ln) (37 °C)
25 | CAAUAGCAAUAUUACGACAC | -3.61 ± 0.34 | -1.88 ± 0.21
26 | CUUUAGCAAUAUUACGGUGU | -3.52 ± 0.21 | -3.12 ± 0.25
27 | CGCGAGCAAUAUUACGUAGU | -3.92 ± 0.18 | -2.14 ± 0.16
28 | GACUAGCAAUAUUACGGGCA | -0.911 ± 0.072 | 0.2 ± 0.085
29 | AGCGAGCAAUAUUACGAGGU | -3.69 ± 0.24 | -2.48 ± 0.3
30 | UUCCAGCAAUAUUACGCUCG | – | -0.977 ± 0.23
31 | GAGCAGCAAUAUUACGUAAG | -2.59 ± 0.17 | -1.45 ± 0.18
32 | CGCAAGCAAUAUUACGGGGC | -3.65 ± 0.17 | -2.6 ± 0.15
33 | CACAAGCAAUAUUACGAGAA | -2.29 ± 0.31 | -2.41 ± 0.34
34 | UUAUAGCAAUAUUACGGAGU | -3.38 ± 0.32 | -2.15 ± 0.3
35 | AAGAAGCAAUAUUACGCCGG | -2.02 ± 0.24 | -1.81 ± 0.18
36 | AGUUAGCAAUAUUACGUAGC | -3.86 ± 0.26 | -0.803 ± 0.14
37 | UCGCAGCAAUAUUACGUAGA | -0.804 ± 0.065 | -0.0374 ± 0.079
38 | CCAGAGCAAUAUUACGCCAC | -3.59 ± 0.26 | -2.28 ± 0.24
39 | AAGUAGCAAUAUUACGAGUU | -1.86 ± 0.098 | -0.204 ± 0.096
40 | AAUCAGCAAUAUUACGCCGU | -0.744 ± 0.085 | -0.531 ± 0.099
41 | UAACAGCAAUAUUACGCUGG | -3.29 ± 0.17 | -2.42 ± 0.21
42 | AGGCAGCAAUAUUACGUUCG | -0.642 ± 0.079 | -0.181 ± 0.11
43 | AAAUAGCAAUAUUACGUCGG | -2.54 ± 0.14 | -1.14 ± 0.13
44 | UGCAAGCAAUAUUACGAACG | -0.0871 ± 0.083 | 0.961 ± 0.11
45 | CAAAAGCAAUAUUACGACGC | -0.886 ± 0.092 | -1.14 ± 0.14
46 | AGAAAGCAAUAUUACGAUCC | -0.604 ± 0.07 | 0.0529 ± 0.11
47 | AUUAAGCAAUAUUACGCCCA | -1.11 ± 0.19 | -0.42 ± 0.29
